Results taken from paper PMC6538622 (Scientific Reports, 2019).

Molecular target: the molecule itself
Experiment: SEC-SAXS; 5-10 mg/ml protein in 10 mM DTT, 10 mM MgCl2, 0.5 M NaCl, 20 mM Tris pH 8; KW403-4F size-exclusion column, B21 beamline (Diamond Light Source); molecular mass from I(0)

B1: Escherichia coli RNase E N-terminal catalytic domain (domain or fragment)
chain: not shown
notes: also called EcRNase E NTD; E. coli RNase E NTD
stoichiometry N: 4
